Test: soluble on expression in E. coli; label from the status in PepcDB or PDB records

**Q.** For “MKNFEIVTVTPDHAEQLISMIHELAEFEKMKSSVVNTAEKLRKDIENKAVHGFIAFIGEEPAGMNLFYYAYSTWVGQYLHMEDLYIRPQFRRMGLARTLWKKLAELARDKGIVRLEWAVLDWNKNAIALYDTVDYVNLTKSEGWFTFRMDGAAINKFADE”, which “soluble on expression in E. coli” value is on record?
**A.** not soluble

**Q.** Which “soluble on expression in E. coli” value does the source give for “MSLDSNSQSRSSSASSIGSESETGNAVVVFGYREAITKQILAYFAQFGEILEDLESELGDTETMRTPGYFFQQAPNRRRISREHGRTWTKLTYANHSSYLRALREHGTIYCGAAIGCVPYKHELISELSRDTYNSMNDVKQTNSISTNQLTQHNQSEVPKSNQTFETKPTNETERNQIKTPSAFGSDNKGNGSISSGRTKRRLSIKDGSSLFLSGTDNIFSTLDGQPTKKRMINRDRSLIGKISGWLFGWNDLEGHHHHHH” here?
**A.** soluble

**Q.** Which “soluble on expression in E. coli” value does the source give for “MKIEKTSNFAPINLLYKKKTSFNSRGIFLIIAFNNSSFNLIYKNNNKSYKSTRLNTILRKKNRVIEQVLDKDIIVVPLGGLGEIGMNCMLIGSKKRFILIDCGIMFTDLSHLGIQKVIPDINFLTHIQNLIEGLIITHGHEDHIGAINWVLPILRTDALVYTSRFVYNIISKRIDKQNYLFKKLFRIFDLKKRFQLGPFECEAFRVTHSIPDCCGFVIRSKYGLIVHTGDWKIDEFPLDGEKFDREFLESISKEKVLLMMSDSTNSLSHGRTASEKVVQDSLVSIITNPKIKGRIITTQFASNVFRLYSIKKAADISKKKICFLGTSLNSYLDASLLDGRAPFHPSELVQESELKNIDPDKIIIVTTGSQGEARSTLNLSSLDLSPRLSLNPYDTIIYSAKIIPGNDKKVVRMLNRISSHGCKIIYGNQAKIHTSGHAYEDELKEILKIVKPSYFLPVHGELISLNVHSSIALQNCGIKNTIVMRNGQVLSLESDNQNPLGFKLFNLSGEINLVNHYNTGSSILGSYADIGISDKIKISNEGIILISLEFVRIKESDTYVSFKSKLRISSRGIWIDRGKLNFIIKKLLFNILNKCRTNISIISLEQIISETMNYSCYKINRSNPEIIVYANELTNI” here?
**A.** soluble

**Q.** With “MSLEQMLWDAACSIRGEKDAAKFKDYLLPLLFLKRLSDVFDDEIERLAEEYGDRATALEIAESDHSLLRFYLPPEARWAVISGRESFDWPLDDRGRPTAPRDIGEHLTKAVRAVVKQNPTLSGVIDVVDFAAERNGERDINPAKLRGVVETFSDPRYRLGLADVQPDFLGRAYEYLLRKFAEGSGQSAGEFFTPTEVGFLMAHILRPKPGETCHDYACGSAGLLIKLQLVARELDPTSRVPLKLSGQELQAESYAVAQMNAIIHDMEVELARGDTMINPKFREASGKIRGHDIVVANPMWNQPFAADLFANDPFDRFRTAGGITSGKGDWAWLQHTLACMNDHGRAAVVLDTGAVTRGSGSKNEDKERTIRKWFVEQDLIDGVILLPENLFYNTTAAGVIVVLSRRKPAARKGKIVLLNASRRFKKGRPKNYLPEEDIRPLAAMYLKGEPVEGELAVITTEQAREADYNLSPSRWVGQNGDAEIGSIPNLLRALEQLNEEDASLTSGLLQLLRPLAKTGDAEGHHHHHH” as the sequence, how does the “soluble on expression in E. coli” value read?
**A.** soluble

**Q.** With “MPDSPAEVKTQPRSTPPSMPPPPPTSSQGATRPPSFTPHTLMNGSSHSPTAIHGAPSTPNGFSNGPATSSTASLSTQHLPPACGARQLSKLKRFLTTLQQFGSDISPEIGERVRTLVLGLVNSTLTIEEFHAKLQEATNFPLRPFVIPFLKANLPLLQRELLHCARLAKQTPAQYLAQHEQLLLDASATSPVDSSELLLEVNENGKRRTPDRTKENGSDRDPLHPDHLSKRSCTLSPAQRCSPSNGLPHPTPPPPPHYRLEDMAMAHHFRDSYRHPDPRELRERHRPLAIPGLDKKK” as the sequence, how does the “soluble on expression in E. coli” value read?
**A.** soluble

**Q.** For “MRGKNTGKQRRSIKKQQTVAELKHLFDAPGRGSVMPRQVLWGDLCLTAFPHELNSESTAPMHRYILLSIIRIPLPLTLESQRSLTLVKRCFRRSSVLSSTLYSRLGSTTF”, which “soluble on expression in E. coli” value is on record?
**A.** not soluble

**Q.** Which “soluble on expression in E. coli” value does the source give for “MSNGGKRPPEDDSKLPYYKLVVIGDGGVGKSSLTIQFFQKQFVDYYDPTIEDQYIQHCEIDGNWVIMDVLDTAGQEEFSAMREQYIRGGRGFLLVFSVTERKSFEEAHKLYNQVLRVKDRSEYPVLLVANKVDLINQRVVSEQEGRELAAQLKLMYIETSAKEPPVNVDAAFHELVRIVRSFPSDEGDHEASMASVPRTKKRKDKGKCLIS” here?
**A.** soluble

**Q.** With “MDAIILQENIEGLLSLVRMLLPDGGSAGCVYLDDLSALQRSIHEKINDLYSQRGETPEQDATLCLAILQGYNVSMYANPEDEERKQAVLTRSLSLLDVLPPSLLKQQLSAVCYGMQELCEIN” as the sequence, how does the “soluble on expression in E. coli” value read?
**A.** not soluble

**Q.** For “MGSDKIHHHHHHMIVINMFSSANKVAGQGVGAVYTELMGLLKHDFSNEFEVNVNRYTRSDISHYHTIDPKFYLSTFSKKRGRKIGFVHFVPSTLDASLKLPRVARWTLDKYTLAFYKRMDQLVVVNPNFIPKLEAYGISRDKVTYIPNFVSQRTFHPVSTEKRQALRHANGFKPDDFVIFGAGQVQDRKGVSDFIKLAKQNPEFRFVWAGGFSFGRITEGYDHLKKAVAEAPANLDFTGIMPRETMIDYYNMADVFLLPSYEELFPMSVLEAFATGTPVMVRDLELYHQIITPYAITAVDVDDMQSRLRALADDHDLLATYATKSRQAAEVYDESRLEKVWHDFYLHQAALGKH”, which “soluble on expression in E. coli” value is on record?
**A.** not soluble

**Q.** For “AKGSTNHRALTGVIFEPFEEVKKELDLVPTVPQASLARQKYVDESESAVNEQINVEYNVSYVYHAMFAYFDRDNVALRGLAKFFKESSEEEREHAEKLMEYQNKRGGKVKLQSIVMPLSDFDHADKGDALHAMELALSLEKLTNEKLLNLHSVATKNGDVQLADFVETEYLGAQVEAIKRISEYVAQLRRVGKGHGVWHFDQMLLHEGGDAA”, which “soluble on expression in E. coli” value is on record?
**A.** soluble

**Q.** With “MSLASATDSRYGQKESSDQNFDYMFKILIIGNSSVGKTSFLFRYADDSFTPAFVSTVGIDFKVKTIYRNDKRIKLQIWDTAGQERYRTITTAYYRGAMGFILMYDITNEESFNAVQDWSTQIKTYSWDNAQVLLVGNKCDMEDERVVSSERGRQLADHLGFEFFEASAKDNINVKQTFERLVDVICEKMSESLDTADPAVTGAKQGPQLSDQQVPPHQDCACEGHHHHHH” as the sequence, how does the “soluble on expression in E. coli” value read?
**A.** soluble

**Q.** For “MASIDRFQVMQEPELKILEHWFENEDTRRRMDGMLLLDEWYARVNKDKHDTVIMAYDGQLPAGMVVIEFGEERTYIGLIVNPLYRLKGYGKQILQKLMTEPDFTSVREWVACIEEDNRISLACFQAAGFTLEDTEPDEDGFLTLILRNLEHHHHHH”, which “soluble on expression in E. coli” value is on record?
**A.** not soluble

**Q.** For “MKAERILGALYGQALGDAMGMPSELWPRTRVKAHFGWIDRFLPGPKENNAACYFNRAEFTDDTAMALCLADALLECEGNIDPEIIGRNILAWAERFDAFNKNVLGPTSKIALNAIRDGKPIAALENNGVTNGAAMRVSPLGCLLPPTNLTAFIAEVALASSPTHKSDLAVAGAVVVAWAVSRAVNGDTWQSIADSLPAVAHQAQTARITTFSASLSARLELALNIVRHADGVESASEQLYQIIGAGTSTIESVPCAIAMVELANTDPNRCAVLCANLGGDTDTIGAMATAICGALHGVSAINPQLKQTLDEVNQLDFARYAVALASYRQRREAL”, which “soluble on expression in E. coli” value is on record?
**A.** not soluble

**Q.** With “MSTGSVDSQQSGGTLDAASKNIDHVIDQARHRHHQHRSKFKEAIDYLDQIFEDLKKECDPDDKNNNDENNKPFDPPPTFVAVKKKPTPLATSSASTTAPAAKIASASDSKKPASSSSTISVKPTVRQKTSETSKSKPLQQAPPSPVEVVIPVRKLSQGATNNQAEPTVAETIVLAKKTDKMDFTRRWLQDDLKSLAHLPPANIAPNASYYQDFDEHSLGSCSAEVAAFNTTKEKKNGSKASRKVSDSSDMIRPRPFRPQPVYPMVDGFNGPSAFEPFSSHTLPRVASNDQIPSEMKRSGSQDPYNTLRSMRSEGDGFDSARPSPSAFQQVSPFHRGSSMRSSLRSLPDHSPVRQKNSSYEVAAKDPVLSIDQLVAELELNTENTFSPADKRRSFPTSFGRPQAHQAQQHHAPSDYEKPNRFRAETRHAPTRGRAQNFVAPVAEPMTSKAPIYSQAVRPKQQQQQKSLDEVTSMLNRAVSQFGNEQRQAYQHPTAYKQLSQQSFGSVHSNNAFETINQEKINPSRVEAMHNMFERGTAPTSWKMQQKDSYEDRSQKMSPLQEVTYASLNSYSPPPPPPSHPLPQNGSHGMARNTSQNQISYHEYTPQPPTTQPPQRPPGSANSSQGGYYSSNSSGIGSNYPQNQQNQMYNNPRRSLIIDQQSISSRMPSVENDDDDGFYDNIGIYNDDRRYSRGSELETSASFRQLPPASNTSKHNRIGSFLRKIGGGSSRPPGSAASLMSLNKIANETIIKPGGLMKSNSLSNEPWKKVMLNGGASMPREANNNHKTGLGARLKNSLFGSRKRLDG” as the sequence, how does the “soluble on expression in E. coli” value read?
**A.** not soluble

Reference: the DeepSol protein solubility set
